Experimental data taken from patent US20240132589A1 (ONCORESPONSE, published 2024).

Experiments:
[1] = molecular target: T1, Human LILRB1 on transiently transfected HEK293-6E cells (human, UniProt Q8NHL6 24-650); assay: flow cytometry, transiently transfected HEK293-6E cells
T1 construct: whole, on cells; also called hLILRB1
Experimental: To determine that the anti-LILRB2 antibodies specifically bind to LILRB2 and not other LILRB and LILRA family members, a cross-reactivity assay was performed. Cross-reactivity of the LILRB2 antibodies to other LILRB proteins was assessed by antibody binding to transiently transfected HEK293-6E cells, measured by flow cytometry. Binding was evaluated to HEK293-6E cells transiently transfected with human LILRB-1, -2, -3, -4, and 5 plasmids (Origene, Nos. RC219949, RC217935, RC211228, RC220932, RC206516) or to cells transiently transfected with human LILRA-1, -2, -4, -5, and -6 plasmids (Origene, Nos. RC210808, RC205626, RC220452, RC212310 RC212965). […] Murine primary antibodies to LILRA and LILRB targets and corresponding isotype controls were used to confirm specific binding of all targets tested (R&D Systems) while an AF647 F(ab′)₂ fragment goat anti-mouse antibody (Jackson ImmunoResearch, No. 115-606-062) was used for the detection of bound positive control antibodies. No binding of B2A-IgG4 or B2A-IgG1 to LILRB-1, -3, -4, or -5 was observed, and no binding of either antibody to LILRA-1, -2, -4, -5, or -6 was observed, confirming specificity of these antibodies.

[2] = molecular target: T2, Recombinant human LILRB2 protein (ELISA antigen) (human, UniProt Q8N423 22-460); assay: ELISA, immobilized LILRB2-His; conditioned media of transient transfections
T2 construct: also called LILRB2-His; recombinant LILRB2
Experimental: To confirm binding to human and cynomolgus LILRB2, antibodies in supernatants were evaluated for binding by enzyme-linked immunosorbent assay (ELISA). Recombinant LILRB2 proteins (human: SEQ ID NO: 48; cynomolgus) were diluted in PBS to 2 μg/mL and added to 384-well high-binding ELISA plates (Greiner Bio-One Microlon™) at 25 μL/well and incubated at 4° C. overnight. The plates were washed three times with Wash Buffer (0.05% Tween® 20 in PBS), using a microplate washer and then blocked with 90 μL/well of ELISA Blocking Buffer A (1% BSA in PBS) for 1 hour at room temperature (RT). After blocking, 25 μL/well of LILRB2 antibodies or isotype control were added to the plates and incubated for 1 hour at RT. After primary antibody binding, plates were washed three times with Wash Buffer using a microplate washer. Secondary detection antibody (HRP-goat anti-rabbit Fab fragment) was diluted to 1:3000 in assay diluent (1% BSA in PBS) and 25 μL/well was added to plates and incubated at RT protected from light for 1 hour. Following incubation, plates were washed four times with Wash Buffer, using a microplate washer. After removal of the final wash, 25 μL/well of 1-Step™ Ultra TMB-ELISA Substrate Solution (Thermo Fisher, No. 34028) was added and plates were incubated for 5-10 min at RT, protected from light. After development, the reaction was stopped by addition of 25 μL/well of 0.3 M HCl, and plates were read using an EnVision (Perkin Elmer) microplate reader at 450 nm. EC₅₀ values were calculated based on log concentration of the primary antibodies at optical density at 450 nm.
Twenty-five IgG4 variants were expressed in mammalian cell culture as a combinatorial library of the five light and five heavy chains. In addition, B2A-IgG4 was included as a transfection control. The conditioned media from these transient transfections were assayed for human IgG concentration. A plate-based ELISA (see Example 2) was performed in which LILRB2-His was immobilized, and binding of humanized mAb variants was detected via an anti-human IgG4 HRP-labeled secondary antibody. The parental rabbit/human chimera clone transfection served as the benchmark EC₅₀ positive control.

[3] = molecular target: T3, Human LILRB2 on stably transduced HEK293T cells (human, UniProt Q8N423 22-597); assay: flow cytometry, HEK293T cells stably expressing human LILRB2
T3 construct: Lentiviral transduction (G&P Biosciences LTV2992); also called HEK293T-LILRB2; LILRB2-expressing HEK293T cells
Experimental: To confirm binding of LILRB2 antibodies, flow cytometry binding assays were performed using HEK293T cells stably expressing human LILRB2 (Example 3). […] The B2A-IgG1 and B2A-IgG4 chimeras bound the LILRB2-expressing HEK293T cells, with equivalent EC₅₀ values of 0.21 nM and 0.30 nM respectively.
Select humanized variant antibodies were purified and tested for their ability to bind human LILRB2 by ELISA, using the method described in Example 2, and binding to HEK293T cells expressing human LILRB2, using the method described in Example 4. Representative data are shown for IgG4 variants in Table 6.

T3 sequence (Q8N423 other isoform, or with tags, fused parts or gaps limits assumed): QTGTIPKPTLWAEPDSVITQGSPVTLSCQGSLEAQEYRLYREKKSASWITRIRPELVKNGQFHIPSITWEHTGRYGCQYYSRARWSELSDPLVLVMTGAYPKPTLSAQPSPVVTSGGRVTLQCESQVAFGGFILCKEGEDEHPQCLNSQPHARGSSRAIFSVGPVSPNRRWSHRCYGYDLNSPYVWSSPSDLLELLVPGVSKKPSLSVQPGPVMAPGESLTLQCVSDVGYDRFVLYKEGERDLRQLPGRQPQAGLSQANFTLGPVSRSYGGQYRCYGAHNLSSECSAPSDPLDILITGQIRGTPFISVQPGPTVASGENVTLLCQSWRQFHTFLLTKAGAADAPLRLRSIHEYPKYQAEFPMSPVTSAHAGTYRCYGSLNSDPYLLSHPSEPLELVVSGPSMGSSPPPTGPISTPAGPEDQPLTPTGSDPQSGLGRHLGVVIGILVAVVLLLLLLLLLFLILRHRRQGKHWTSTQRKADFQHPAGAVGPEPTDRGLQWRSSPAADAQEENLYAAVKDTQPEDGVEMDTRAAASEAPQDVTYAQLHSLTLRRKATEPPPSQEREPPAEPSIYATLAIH
T1 sequence (Q8NHL6 24-650): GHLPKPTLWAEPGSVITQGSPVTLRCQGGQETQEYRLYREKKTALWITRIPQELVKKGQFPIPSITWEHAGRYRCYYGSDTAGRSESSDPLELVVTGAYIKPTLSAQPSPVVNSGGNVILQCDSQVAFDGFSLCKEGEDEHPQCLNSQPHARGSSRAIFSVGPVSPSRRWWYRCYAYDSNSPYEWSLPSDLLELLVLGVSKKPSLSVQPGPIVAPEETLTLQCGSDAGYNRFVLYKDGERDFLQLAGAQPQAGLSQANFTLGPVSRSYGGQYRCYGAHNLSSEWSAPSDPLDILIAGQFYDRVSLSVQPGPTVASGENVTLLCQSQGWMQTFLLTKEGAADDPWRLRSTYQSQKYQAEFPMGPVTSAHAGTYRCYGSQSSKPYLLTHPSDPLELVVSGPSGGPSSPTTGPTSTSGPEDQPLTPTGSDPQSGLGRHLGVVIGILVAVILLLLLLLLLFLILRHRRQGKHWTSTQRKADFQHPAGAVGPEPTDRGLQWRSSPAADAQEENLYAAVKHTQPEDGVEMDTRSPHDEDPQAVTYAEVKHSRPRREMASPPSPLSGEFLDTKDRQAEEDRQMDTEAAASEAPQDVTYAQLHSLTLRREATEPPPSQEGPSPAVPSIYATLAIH
T2 sequence (Q8N423 other isoform, or with tags, fused parts or gaps limits assumed): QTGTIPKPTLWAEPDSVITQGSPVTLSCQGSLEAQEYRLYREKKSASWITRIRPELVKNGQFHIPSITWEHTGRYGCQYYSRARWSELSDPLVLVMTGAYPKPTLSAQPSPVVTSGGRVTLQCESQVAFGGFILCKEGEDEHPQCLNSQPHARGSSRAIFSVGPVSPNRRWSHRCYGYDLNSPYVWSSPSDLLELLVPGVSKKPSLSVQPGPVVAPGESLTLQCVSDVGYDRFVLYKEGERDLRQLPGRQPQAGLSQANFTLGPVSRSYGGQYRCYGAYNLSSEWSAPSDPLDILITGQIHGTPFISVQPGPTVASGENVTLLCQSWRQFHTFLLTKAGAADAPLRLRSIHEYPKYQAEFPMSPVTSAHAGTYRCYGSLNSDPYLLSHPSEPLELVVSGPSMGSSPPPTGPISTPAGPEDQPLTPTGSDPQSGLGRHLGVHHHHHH

B1: B2A-IgG1 (antibody)
heavy: not shown
light: DVVMTQTPSSVSAALGGTVTIKCQASQSIGSNLAWYQLKPGQRPKLLIYAAATLASGGSSRFKGSGSGTDFTLTISDLECADAATYYCQSYVSGSSDVAFGGGTEVVVKRTVAAPSVFIFPPSDEQLKSGTASVVCLLNNFYPREAKVQWKVDNALQSGNSQESVTEQDSKDSTYSLSSTLTLSKADYEKHKVYACEVTHQGLSSPVTKSFNRGEC
notes: Rabbit variable regions on human IgG1 / kappa constant regions; AF647-conjugated in some flow assays; also called B2A-IgG1 chimera; anti-LILRB2 B2A-IgG1
MFI [1]: 43 MFI

B2: B2A-IgG4 (antibody)
heavy: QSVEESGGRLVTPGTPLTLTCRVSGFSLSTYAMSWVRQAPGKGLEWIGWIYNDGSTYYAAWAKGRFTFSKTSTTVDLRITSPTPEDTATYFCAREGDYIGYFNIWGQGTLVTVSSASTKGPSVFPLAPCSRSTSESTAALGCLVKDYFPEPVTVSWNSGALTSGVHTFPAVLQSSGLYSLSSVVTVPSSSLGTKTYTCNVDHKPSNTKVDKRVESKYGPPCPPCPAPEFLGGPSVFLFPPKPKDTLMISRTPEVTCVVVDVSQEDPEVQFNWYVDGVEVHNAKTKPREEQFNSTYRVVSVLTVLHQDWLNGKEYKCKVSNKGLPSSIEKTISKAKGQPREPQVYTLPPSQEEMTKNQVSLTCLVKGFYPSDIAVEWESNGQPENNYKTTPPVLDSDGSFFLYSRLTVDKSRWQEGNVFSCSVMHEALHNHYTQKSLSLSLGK
light: DVVMTQTPSSVSAALGGTVTIKCQASQSIGSNLAWYQLKPGQRPKLLIYAAATLASGGSSRFKGSGSGTDFTLTISDLECADAATYYCQSYVSGSSDVAFGGGTEVVVKRTVAAPSVFIFPPSDEQLKSGTASVVCLLNNFYPREAKVQWKVDNALQSGNSQESVTEQDSKDSTYSLSSTLTLSKADYEKHKVYACEVTHQGLSSPVTKSFNRGEC
notes: Rabbit variable regions on human IgG4 / kappa constant regions; also called B2A-IgG4 chimera; Parent B2A-IgG4
EC50 [2]: 2.74 ng/mL | BMAX [gMFI] [3]: 12100 gMFI | EC50 [3]: 0.34 ng/mL
